# Source: PMC7190159, “The L motifs of two moss pentatricopeptide repeat proteins are involved in RNA editing but predominantly not in RNA recognition”
# T1: 56ΔDYW-13L[ED] (Physcomitrella patens, UniProt A0A2K1IWP1 161-764, V592E)
# T1 sequence: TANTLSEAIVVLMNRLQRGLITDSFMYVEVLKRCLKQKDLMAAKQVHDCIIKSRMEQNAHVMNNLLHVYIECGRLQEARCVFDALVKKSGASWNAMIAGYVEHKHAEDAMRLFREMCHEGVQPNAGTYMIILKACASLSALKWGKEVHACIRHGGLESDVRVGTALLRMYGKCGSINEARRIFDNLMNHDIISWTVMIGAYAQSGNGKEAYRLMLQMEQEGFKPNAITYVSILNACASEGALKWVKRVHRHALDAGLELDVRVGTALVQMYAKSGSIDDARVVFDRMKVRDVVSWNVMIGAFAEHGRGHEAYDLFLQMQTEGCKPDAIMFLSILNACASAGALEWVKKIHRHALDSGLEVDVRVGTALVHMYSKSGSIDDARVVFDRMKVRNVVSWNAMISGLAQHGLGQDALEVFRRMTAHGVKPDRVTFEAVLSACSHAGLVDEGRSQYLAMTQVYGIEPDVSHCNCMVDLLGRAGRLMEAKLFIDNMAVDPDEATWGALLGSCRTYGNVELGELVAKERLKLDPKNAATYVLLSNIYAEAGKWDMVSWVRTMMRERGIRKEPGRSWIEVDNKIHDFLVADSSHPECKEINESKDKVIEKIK
# T2: 56ΔDYW-13L[PD] (Physcomitrella patens, UniProt A0A2K1IWP1 161-764, V592P)
# T2 sequence: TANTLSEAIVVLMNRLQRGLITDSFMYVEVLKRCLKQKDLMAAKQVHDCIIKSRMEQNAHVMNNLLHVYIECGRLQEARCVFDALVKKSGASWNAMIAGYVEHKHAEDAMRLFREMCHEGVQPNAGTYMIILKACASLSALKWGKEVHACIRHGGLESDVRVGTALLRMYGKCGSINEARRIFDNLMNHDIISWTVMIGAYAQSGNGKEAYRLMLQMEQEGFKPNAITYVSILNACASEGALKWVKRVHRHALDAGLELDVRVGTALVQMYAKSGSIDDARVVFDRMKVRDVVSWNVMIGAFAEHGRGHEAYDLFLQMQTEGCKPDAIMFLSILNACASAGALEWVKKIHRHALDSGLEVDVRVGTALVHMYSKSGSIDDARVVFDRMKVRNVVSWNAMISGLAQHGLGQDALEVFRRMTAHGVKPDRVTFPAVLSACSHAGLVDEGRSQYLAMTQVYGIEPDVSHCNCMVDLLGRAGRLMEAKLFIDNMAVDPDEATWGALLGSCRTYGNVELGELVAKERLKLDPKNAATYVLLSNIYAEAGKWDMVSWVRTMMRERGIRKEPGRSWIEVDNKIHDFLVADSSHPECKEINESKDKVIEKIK
# T3: 56ΔDYW-nad3L (Physcomitrella patens, UniProt A0A2K1IWP1 161-764, V188N;M289T;V390T;D420N;L491N;D521S;V592N;D623S)
# T3 sequence: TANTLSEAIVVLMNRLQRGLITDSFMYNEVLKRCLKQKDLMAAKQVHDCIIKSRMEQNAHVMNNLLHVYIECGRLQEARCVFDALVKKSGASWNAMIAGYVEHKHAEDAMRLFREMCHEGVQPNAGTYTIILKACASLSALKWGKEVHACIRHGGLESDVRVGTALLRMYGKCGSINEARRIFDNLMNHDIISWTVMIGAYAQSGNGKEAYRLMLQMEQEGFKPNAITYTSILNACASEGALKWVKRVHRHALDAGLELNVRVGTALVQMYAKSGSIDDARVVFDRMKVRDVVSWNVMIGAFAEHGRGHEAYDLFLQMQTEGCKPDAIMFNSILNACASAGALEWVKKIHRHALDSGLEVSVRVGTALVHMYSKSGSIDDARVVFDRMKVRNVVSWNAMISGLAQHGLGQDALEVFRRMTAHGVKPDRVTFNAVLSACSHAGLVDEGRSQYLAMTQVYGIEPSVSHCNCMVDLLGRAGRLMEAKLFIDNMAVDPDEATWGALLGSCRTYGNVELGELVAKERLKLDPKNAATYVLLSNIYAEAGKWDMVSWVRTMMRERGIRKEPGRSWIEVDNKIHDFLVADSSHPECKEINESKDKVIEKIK
# T4: 56ΔDYW-wt (PpPPR_56 without transit peptide and DYW domain) (Physcomitrella patens, UniProt A0A2K1IWP1 161-764)
# T4 sequence: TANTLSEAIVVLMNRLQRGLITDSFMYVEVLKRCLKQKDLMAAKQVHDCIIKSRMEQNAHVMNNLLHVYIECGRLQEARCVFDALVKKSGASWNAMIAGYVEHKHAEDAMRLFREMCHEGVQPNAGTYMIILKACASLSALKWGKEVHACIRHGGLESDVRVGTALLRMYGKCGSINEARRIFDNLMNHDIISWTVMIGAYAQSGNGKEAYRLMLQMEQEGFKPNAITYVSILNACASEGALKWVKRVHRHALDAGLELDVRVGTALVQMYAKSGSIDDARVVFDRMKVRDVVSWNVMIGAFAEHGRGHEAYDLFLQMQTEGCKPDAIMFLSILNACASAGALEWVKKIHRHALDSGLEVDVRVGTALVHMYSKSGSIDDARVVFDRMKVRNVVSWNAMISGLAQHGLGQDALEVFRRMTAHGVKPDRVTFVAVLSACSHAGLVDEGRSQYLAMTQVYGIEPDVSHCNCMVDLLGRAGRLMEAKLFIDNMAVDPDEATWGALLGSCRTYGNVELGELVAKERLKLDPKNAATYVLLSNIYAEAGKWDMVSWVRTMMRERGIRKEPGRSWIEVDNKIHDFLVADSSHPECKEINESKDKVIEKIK
# How the values were obtained:
# Details in all cases: protein: recombinant; tags: N-term thioredoxin; C-term 6xHis; label: 5'-32P
# [1] = target: T1, 56ΔDYW-13L[ED]; assay: EMSA; like wt; 40 mM Tris pH 8.0, 100 mM NaCl, 4 mM DTT, 0.1 mg/mL BSA, 10% glycerol, 25°C; protein 10 min, then 50 pM RNA 15 min; native 6% PAGE
# [2] = target: T2, 56ΔDYW-13L[PD]; assay: as above
# [3] = target: T3, 56ΔDYW-nad3L; assay: EMSA; no significant difference from wt; 40 mM Tris pH 8.0, 100 mM NaCl, 4 mM DTT, 0.1 mg/mL BSA, 10% glycerol, 25°C; protein 10 min, then 50 pM RNA 15 min; native 6% PAGE
# [4] = target: T4, 56ΔDYW-wt (PpPPR_56 without transit …); assay: EMSA; 0-100 nM protein, 50 pM RNA; lower affinity than for nad4; 40 mM Tris pH 8.0, 100 mM NaCl, 4 mM DTT, 0.1 mg/mL BSA, 10% glycerol, 25°C; protein 10 min, then 50 pM RNA 15 min; native 6% PAGE
# [5] = target: T4, 56ΔDYW-wt (PpPPR_56 without transit …); assay: EMSA; 0-100 nM protein, 50 pM RNA; better affinity than for nad3; 40 mM Tris pH 8.0, 100 mM NaCl, 4 mM DTT, 0.1 mg/mL BSA, 10% glycerol, 25°C; protein 10 min, then 50 pM RNA 15 min; native 6% PAGE
# [6] = target: T4, 56ΔDYW-wt (PpPPR_56 without transit …); assay: EMSA; 100 nM protein; 40 mM Tris pH 8.0, 100 mM NaCl, 4 mM DTT, 0.1 mg/mL BSA, 10% glycerol, 25°C; protein 10 min, then 50 pM RNA 15 min; native 6% PAGE
# [7] = target: T3, 56ΔDYW-nad3L; assay: as above
# [8] = target: T1, 56ΔDYW-13L[ED]; assay: as above
# [9] = target: T2, 56ΔDYW-13L[PD]; assay: as above
Binder,binding result [1],binding result [2],binding result [3],binding result [4],binding result [5],binding result [6],binding result [7],binding result [8],binding result [9]
UUAUUAUAUUUGAUUUGGAAGUCACCUUUUCAUUUC (ssRNA) [nad3-edit],binds,binds,binds,binds,–,–,–,–,–
AUUUUUAUAUAGGUAUAGACGGUAUCUCUUCAUUUU (ssRNA) [nad4-edit],binds,binds,–,–,binds,–,–,–,–
UUAUUUUUUUCGUUUCUCUUUUUGUUUUU (ssRNA) [PpPsbI-RNA1],–,–,–,–,–,no binding,no binding,no binding,no binding
